Test results taken from US20190375786A1, “STABLE PEPTIDES AND METHODS OF USE THEREOF” (Fred Hutchinson Cancer Research Center, priority 2016, published 2019).
Entries after “also recorded” stand apart in the source; their conditions may differ.

Columns and labels:
[1] = tested on: chymotrypsin; assay: SDPR surface display protease resistance, anti-6xHis staining, chymotrypsin; format: cell-based; settings: HEK-293 cells, up to 40 μg/ml chymotrypsin for 20 minutes
Experimental: (§1) Soluble peptides were exposed to 500 U/mL porcine trypsin and analyzed by HPLC. Protease resistance was also assessed by using SDPR-displaying peptides. The SDPR vector is similar to the a surface display GFP FasL(SDGF) vector, but contains a C-terminal 6×His tag (SEQ ID NO: 180) and all basic or aromatic amino acid residues on the stalk removed. Protease resistance is then tested by incubation of cells displaying peptides with trypsin or chymotrypsin, followed by incubation in 10 mM DTT, and staining with an anti-6×His fluorophore-labeled antibody (“6×His” disclosed as SEQ ID NO: 180). If peptides are uncleaved, they retain the His tag and are stained with by the antibody. A control protease-sensitive knottin peptide (SK) was used as a positive control. Cells displaying peptides were treated with up to 40 μg/ml trypsin or chymotrypsin.
(§2) To determine the impact of protease treatment or reducing condition on the function of the peptides, i.e., binding activity, various binding or functional assays can be performed. […] After treatment with the protease and reducing agent, any linearized peptide product or degradation product resulting from reduction and/or proteolysis by treatment with a protease can be detected or analyzed by staining against the 6×His tag (SEQ ID NO: 180). […]

[2] = target: T1, trypsin (Sus scrofa, UniProt P00761); assay: SDPR surface display protease resistance, anti-6xHis staining, trypsin; format: cell-based; settings: HEK-293 cells, up to 40 μg/ml trypsin for 20 minutes
Experimental: as §1, §2

[3] = Resistance to reduction by reduced glutathione (GSH), HPLC; format: physicochemical; settings: 10 mM reduced glutathione (GSH); HPLC vs non-reduced peptide
Experimental: This example describes stability of designed or engineered peptides under reducing conditions. Peptides that are designed or engineered to interact with one or more target proteins in the cell, such as proteins in the nucleus, are exposed to reducing conditions in the cytosolic compartment of cells. Thus, it is advantageous for peptides of this disclosure to display stability in reducing conditions. Stability of peptides of this disclosure was tested in 10 mM DTT and 10 mM GSH. GSH is a more physiologically relevant reducing agent for testing peptide stability in intracellular conditions. An example of a peptide-target protein interaction is a peptide binding to a TEAD protein.

[4] = Circular dichroism in neutral, SDS and acidic buffers; format: physicochemical
Experimental: CD spectra were measured with a Jasco J-720W spectropolarimeter using a 1.0 mm path length cell. Lyophilized peptide samples were resuspended in ultra pure water. CD runs were carried out by diluting peptides in 20 mM phosphate buffer saline (pH 7.4), 20 mM phosphate buffer saline (pH 7.4) supplemented with 1% sodium dodecyl sulfate (SDS), or phosphate buffer saline at pH 4. Peptides were diluted to 15-25 μM in concentration. Data are shown in terms of total molar ellipticity [θ]; (deg cm^2 dmol^−1).

[5] = Combined resistance grouping of hitchin peptides (FIG. 27, from Table 2 data); format: physicochemical; settings: FIG. 27 grouping of hitchin peptides
Experimental: As shown by the data in TABLE 2, the tested peptides of the present disclosure show a range of resistance to proteases, reduction, and high temperature. The peptides were classified as high, medium, or low for each condition. […] For example, after a peptide is treated at 100° C., if the HPLC peak of the peptide is mostly absent as compared to HPLC peak of the peptide not treated at 100° C., then the peptide is classified as low or having low resistance to 100° C. After a peptide is treated with reducing conditions, if there is no or very minimal HPLC peak that overlaps with the HPLC peak of the peptide not treated with reducing conditions, then the peptide is classified as low or having low resistance to reducing conditions.
The peptides with the highest resistance data were further analyzed. […] The six peptides that were further tested were peptides comprising the sequences of SEQ ID NO: 27, SEQ ID NO: 24, SEQ ID NO: 6, SEQ ID NO: 10, SEQ ID NO: 12, and SEQ ID NO: 57, which were all hitchins. […] FIG. 27C is a sequence analysis of SEQ ID NO: 27, SEQ ID NO: 24, SEQ ID NO: 6, SEQ ID NO: 10, SEQ ID NO: 12, and SEQ ID NO: 57 from FIG. 27B. FIG. 27C identifies which amino acids are present at each position in SEQ ID NO: 27, SEQ ID NO: 24, SEQ ID NO: 6, SEQ ID NO: 10, SEQ ID NO: 12, and SEQ ID NO: 57. For example, at position one, all peptide sequences comprise a G amino acid residue; at position two, all peptide sequences comprise an S amino acid residue; at position three, all peptide sequences comprise either G, Q, or V amino acid, or null; and at position four, all peptide sequences comprise V, R, or K amino acid, or null. […] SEQ ID NO: 167 and SEQ ID NO: 168 describe sequences of peptides that are particularly resistant to reduction, pepsin, 75° C., and 100° C., which would typically degrade peptides. […] Additionally, SEQ ID NO: 169 describes sequences of peptides that are also particularly resistant to trypsin.

[6] = target: T2, pepsin (Sus scrofa, UniProt P00791); assay: Stability in SPTD (simulated gastric fluid, pepsin, Tris and DTT), RP-HPLC; format: in vitro ADME; settings: SGF pH 1.05 with 500 U/ml pepsin, 100 mM Tris, 10 mM DTT
Experimental: (§3) Peptides were first suspended in 500 ul of ddH2O to a stock concentration of 2 mg/ml. Reactions were prepared by adding 12.5 ug of peptide from the stock solution to a 10 mM solution of DTT in PBS and allowed to incubate at room temperature for 30 minutes. Other reactions were prepared with 12.5 μg peptide with or without 500 U/ml pepsin in simulated gastric fluid (SGF; pH 1.05; […] sodium chloride in 0.7% (v/v) hydrochloric acid) and were incubated for 30 minutes at 37.5° C. Some reactions were quenched with a final concentration of 100 mM Tris base and 10 mM dithiothreitol (DTT). Some reactions were performed in all of the above components, including simulated gastric fluid, pepsin, Tris, and DTT (referred to as SPTD). Reversed phase HPLC (RP-HPLC) was run on samples using an Agilent 1260 HPLC equipped with a C-18 Poroshell 120B column. Sample were analyzed by a gradient method with a mobile phase of Solvent A (water with 0.1% TFA) and Solvent B (acetonitrile with 0.1% TFA). Solvent B was ramped up from 5%-45% of the mobile phase over a period of 10 minutes. Peptides were detected at an absorbance of 214 nm and 280 nm.

[7] = Resistance to reduction by DTT, RP-HPLC; format: physicochemical; settings: 10 mM DTT; HPLC vs non-reduced peptide
Outline: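 Peptide (12.5 μg from a 2 mg/ml stock, or 0.015 mM final in PBS) was held 30 min at room temperature with or without 10 mM DTT. Reduced and non-reduced forms were compared by C-18 RP-HPLC using a 5–45% acetonitrile/0.1% TFA gradient over 10 min, with detection at 214 and 280 nm.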

[8] = Stability in simulated gastric fluid (SGF, pH 1.05), RP-HPLC; format: physicochemical; settings: HPLC vs non-reduced peptide
Experimental: as §3
This example illustrates peptide stability in biological conditions including in the presence of reducing agents, proteases, oxidative conditions, acidic conditions, and simulated gastric fluids. […] Various peptides were suspended in 500 μl of ddH2O at a stock concentration of 2 mg/ml. This was then diluted in accord with the reaction conditions to prevent adverse buffering effects. Reactions were prepared with 12.5 μg peptide dissolved in solution and, in some samples, additionally suspended in a 10 mM solution of DTT, simulated gastric fluid (pH 1.05; […] sodium chloride in 0.7% (v/v) hydrochloric acid), 500 U pepsin (5000 U/ml pepsin), 50 U trypsin (500 U/ml trypsin) with 1 mg/ml inhibitor in PBS, or a combination of any of these conditions. All protease reactions were incubated for 30 min at room temperature and then quenched. Pepsin reactions were quenched by adding Tris base to a final concentration of 0.075 M. Trypsin reactions were quenched by adding excess soybean trypsin inhibitor. RP-HPLC was then run on samples using an Agilent 1260 HPLC equipped with a C-18 Poroshell 120B column. Sample were analyzed by a gradient method with a mobile phase of Solvent A (water with 0.1% TFA) and Solvent B (acetonitrile with 0.1% TFA). Solvent B was ramped up from 5%-45% of the mobile phase over a period of 10 minutes.

[9] = target: T2, pepsin; assay: Pepsin digestion resistance in simulated gastric fluid, RP-HPLC; format: in vitro ADME, porcine; parameters: purchased Sigma Aldrich P7012; settings: HPLC
Outline: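 Digestion resistance read by reversed-phase HPLC (C-18, 0.1% TFA, 5–45% acetonitrile over 10 min; 214/280 nm) after 12.5 μg peptide spent 30 min at 37.5 °C in pH 1.05 simulated gastric fluid, with or without 500 U/ml pepsin. Some samples quenched with Tris base and DTT.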

[10] = target: T1, trypsin; assay: Trypsin digestion resistance of soluble peptide, RP-HPLC; format: in vitro ADME, porcine; parameters: purchased Sigma Aldrich 6567; settings: 50 U trypsin (500 U/ml), 30 min at room temperature, with or without 10 mM DTT; HPLC
Outline: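 Read-out was RP-HPLC (C-18, water/acetonitrile with 0.1% TFA, 5-45% over 10 min) of peptide left after trypsin treatment. Digest: 12.5 μg peptide, 500 U/ml porcine trypsin, PBS, 37.5° C for 30 min, stopped by soybean trypsin inhibitor; samples then reduced (10 mM DTT) or left non-reduced.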

T1 sequence (P00761 9-231): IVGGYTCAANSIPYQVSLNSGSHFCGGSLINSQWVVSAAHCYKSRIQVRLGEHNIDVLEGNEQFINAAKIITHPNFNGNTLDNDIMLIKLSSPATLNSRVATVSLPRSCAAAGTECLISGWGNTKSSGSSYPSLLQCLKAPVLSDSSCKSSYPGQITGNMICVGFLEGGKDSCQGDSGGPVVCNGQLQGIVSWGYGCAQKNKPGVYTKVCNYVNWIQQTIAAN
T2 sequence (P00791 60-385): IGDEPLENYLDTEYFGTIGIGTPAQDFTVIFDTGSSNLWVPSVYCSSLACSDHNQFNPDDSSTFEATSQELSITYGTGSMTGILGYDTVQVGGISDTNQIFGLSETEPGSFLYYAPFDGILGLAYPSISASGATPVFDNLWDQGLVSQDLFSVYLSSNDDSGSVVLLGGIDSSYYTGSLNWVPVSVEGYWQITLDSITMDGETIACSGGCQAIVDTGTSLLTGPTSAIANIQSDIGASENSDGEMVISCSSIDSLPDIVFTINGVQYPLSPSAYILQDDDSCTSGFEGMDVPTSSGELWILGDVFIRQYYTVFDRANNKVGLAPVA

## PDEYIERAKECCKKQDIQCCLRIFDESKDPNVMLICLFCW [SEQ ID NO: 126]
[1]
  resistance of surface-displayed peptide to cleavage by chymotrypsin: partially resistant
[2]
  resistance of surface-displayed peptide to cleavage by trypsin: partially resistant
[3]
  resistance to GSH reducing conditions: resistant

## GSVFINVKCRGSPECLPKCKEAIGKSAGKCMNGKCKCYP [SEQ ID NO: 37]
[4]; pH 4
  secondary structure by CD in phosphate buffer saline at pH 4: retained its secondary structure
[4]; pH 7.2
  secondary structure by CD in phosphate buffer saline at pH 7.2: retained its secondary structure
[4]; pH 7.2, 1% sodium dodecyl sulfate
  secondary structure by CD in phosphate buffer saline at pH 7.2 with 1% SDS: lost secondary structure
[5]
  combined resistance to reduction, pepsin and elevated temperatures such as 75° C. and 100° C.: not highly resistant

## GSGVPINVRCRGSRDCLDPCRRAGMRFGRCINSRCHCTP [SEQ ID NO: 31]
[6]
  resistance in SPTD (SGF, pepsin, Tris, DTT) (in words): highly resistant
[7]
  resistance to reduction by DTT (in words): highly resistant; also recorded: remained intact; also recorded: intact and resistant
[8]
  stability in simulated gastric fluid / low pH (in words): highly resistant; also recorded: remained intact; also recorded: intact and resistant
[9]; 500 U pepsin (5000 U/ml) in SGF, 30 min at room temperature, with or without DTT
  resistance to pepsin, Example 7 conditions (in words): remained intact; also recorded: resistant
[9]; 500 U/ml pepsin (50 U per reaction) in SGF, 30 minutes at 37.5° C.
  resistance to pepsin digestion (in words): highly resistant
[10]
  resistance to trypsin, Example 7 conditions (in words): remained intact; also recorded: resistant
